How the values were obtained:
[1] = molecular target: T1, recombinant extracellular domain of mouse PD-1 (Sino Biological) (mouse, UniProt Q02242 25-169); test: binding ELISA titration on recombinant protein (FIG. 3A)
T1 construct: extracellular domain; Coated on ELISA plates at 1 ug/mL; also called mPD-1; recombinant mouse PD-1
T1 sequence (looked up): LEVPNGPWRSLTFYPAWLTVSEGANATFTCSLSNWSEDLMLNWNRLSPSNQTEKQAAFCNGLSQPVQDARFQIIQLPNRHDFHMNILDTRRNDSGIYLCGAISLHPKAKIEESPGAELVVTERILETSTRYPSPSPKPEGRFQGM

[2] = molecular target: T2, mouse CLEC9A on cells (HEK293 cells stably overexpressing mCLEC9A; cDC1 among mouse splenocytes) (mouse, UniProt Q8BRU4 1-238); test: dual-binding FACS doublet assay, 1:1 mix of CFSE/CellTrace-stained HEK293 cells expressing each target (FIG. 4A)
T2 construct: whole, on cells
T2 sequence (looked up): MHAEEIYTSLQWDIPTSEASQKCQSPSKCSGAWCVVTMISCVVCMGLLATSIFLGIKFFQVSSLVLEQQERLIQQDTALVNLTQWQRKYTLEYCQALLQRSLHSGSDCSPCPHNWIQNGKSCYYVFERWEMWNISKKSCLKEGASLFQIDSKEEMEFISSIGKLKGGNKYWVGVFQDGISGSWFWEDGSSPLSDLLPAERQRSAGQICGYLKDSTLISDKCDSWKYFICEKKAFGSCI

[3] = molecular target: T3, mouse PD-1 on cells (HEK293 cells stably overexpressing mPD-1; PD-1+ CD8+ OT-1 T cells) (mouse, UniProt Q02242 25-288); test: as above
T3 construct: whole, on cells; also called HEK293-mPD-1
T3 sequence (looked up): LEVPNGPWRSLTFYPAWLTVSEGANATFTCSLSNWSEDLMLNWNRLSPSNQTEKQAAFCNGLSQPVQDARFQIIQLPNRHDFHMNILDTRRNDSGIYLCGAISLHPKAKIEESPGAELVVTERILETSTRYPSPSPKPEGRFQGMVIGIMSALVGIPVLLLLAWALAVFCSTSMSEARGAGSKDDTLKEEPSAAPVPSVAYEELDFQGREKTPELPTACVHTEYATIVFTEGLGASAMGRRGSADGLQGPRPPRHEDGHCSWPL

[4] = molecular target: T1, recombinant extracellular domain of …; test: ELISA on recombinant mouse PD-1 (FIG. 3A)
[5] = molecular target: T4, mouse XCR1 on cells (HEK293 cells stably overexpressing mXCR1; cDC1 among mouse splenocytes) (mouse, UniProt Q9R0M1 1-322); test: FACS binding titration on HEK293-mXCR1 cells (FIG. 3B)
T4 construct: whole, on cells
T4 sequence (looked up): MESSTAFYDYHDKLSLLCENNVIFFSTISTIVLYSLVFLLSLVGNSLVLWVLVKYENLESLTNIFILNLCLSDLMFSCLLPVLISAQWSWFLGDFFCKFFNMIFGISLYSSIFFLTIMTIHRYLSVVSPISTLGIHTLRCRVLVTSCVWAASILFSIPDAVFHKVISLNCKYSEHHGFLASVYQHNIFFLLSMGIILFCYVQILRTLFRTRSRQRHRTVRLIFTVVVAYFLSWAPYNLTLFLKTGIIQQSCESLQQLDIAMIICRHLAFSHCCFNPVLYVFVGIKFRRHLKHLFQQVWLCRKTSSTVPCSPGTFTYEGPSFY

Measured: binding result

B1: PD-1/CLEC9A BiSE (bispecific immune synapse engager; anti-mouse PD-1 clone RMP1-14 arm x anti-mouse CLEC9A clone 10B4 arm) (bispecific antibody)
heavy 1: not shown
light 1: DIVMTQGTLPNPVPSGESVSITCRSSKSLLYSDGKTYLNWYLQRPGQSPQLLIYWMSTRASGVSDRFSGSGSGTDFTLKISGVEAEDVGIYYCQQGLEFPTFGGGTKLELERTVAAPSVFIFPPSDEQLKSGTASVVCLLNNFYPREAKVQWKVDNALQSGNSQESVTEQDSKDSTYSLSSTLTLSKADYEKHKVYACEVTHQGLSSPVTKSFNRGEC
heavy 2: QIVESGGGLVQPKESLKISCTASGFTFSNAAIYWVRQTPGKGLEWVGRIRTRPSKYATDYADSVRGRFTISRDDSKSMVYLQMDNLRTEDTAMYYCTPRATEDVPFYWGQGVMVTVSSASVAAPSVFIFPPSDEQLKSGTASVVCLLNNFYPREAKVQWKVDNALQSGNSQESVTEQDSKDSTYSLSSTLTLSKADYEKHKVYACEVTHQGLSSPVTKSFNRGECDRSEPKSCDKTHTCPPCPAPELLGGPSVFLFPPKPKDTLMISRTPEVTCVVVDVSHEDPEVKFNWYVDGVEVHNAKTKPREEQYASTYRVVSVLTVLHQDWLNGKEYKCKVSNKALPAPIEKTISKAKGQPREPQVCTLPPSREEMTKNQVSLSCAVKGFYPSDIAVEWESNGQPENNYKTTPPVLDSDGSFFLVSKLTVDKSRWQQGNVFSCSVMHEALHNHYTQKSLSLSPGKSAWSHPQFEK
light 2: DIVMTQTPSSQAVSAGEKVTMNCKSSQSVLYDENKKNYLAWYQQKSGQSPKLLIYWASTGESGVPDRFIGSGSGTDFTLTISSVQAEDLAVYYCQQYYDFPPTFGGGTKLELKSSASTKGPSVFPLAPSSKSTSGGTAALGCLVKDYFPEPVTVSWNSGALTSGVHTFPAVLQSSGLYSLSSVVTVPSSSLGTQTYICNVNHKPSNTKVDKKVEPKSC
notes: Knobs-into-holes, CrossMab (CH1-CL swap on the DC arm), Fc N297A, human IgG1/kappa backbone; copies: 1 + 1 + 1 + 1
binds: [1] | [2] | [3]

B2: PD-1/XCR1 BiSE (bispecific immune synapse engager; anti-mouse PD-1 clone RMP1-14 arm x anti-mouse XCR1 clone MARX10 arm) (bispecific antibody)
heavy 1: not shown
light 1: B1 light 1
heavy 2: QVQLQQPGAELVKPGASVKLSCKASGYTFTNYWIHWMKQRPGQGLEWIGMIHPNSDNTKYNEKFKAKAILTVDKSSSTAYMQLSSLTSEDSAVYYCARFANDGAYWGQGTLVTVSSASVAAPSVFIFPPSDEQLKSGTASVVCLLNNFYPREAKVQWKVDNALQSGNSQESVTEQDSKDSTYSLSSTLTLSKADYEKHKVYACEVTHQGLSSPVTKSFNRGECDRSEPKSCDKTHTCPPCPAPELLGGPSVFLFPPKPKDTLMISRTPEVTCVVVDVSHEDPEVKFNWYVDGVEVHNAKTKPREEQYASTYRVVSVLTVLHQDWLNGKEYKCKVSNKALPAPIEKTISKAKGQPREPQVCTLPPSREEMTKNQVSLSCAVKGFYPSDIAVEWESNGQPENNYKTTPPVLDSDGSFFLVSKLTVDKSRWQQGNVFSCSVMHEALHNHYTQKSLSLSPGKSAWSHPQFEK
light 2: DVVVTQTPLSLPVSLGDPASISCKSSQSLVHSNGNTYLHWYLQKPGQSPKLLIYKISNRFSGVPDRFSGSGSGTDFTLKISRVEAEDLGVYFCSQNTHVPYTFGGGTKLEIKSSASTKGPSVFPLAPSSKSTSGGTAALGCLVKDYFPEPVTVSWNSGALTSGVHTFPAVLQSSGLYSLSSVVTVPSSSLGTQTYICNVNHKPSNTKVDKKVEPKSC
notes: as for B1
binds: [4] | [5] | [3]

Reference: patent US20240376213A1 (YEDA RESEARCH AND DEVELOPMENT, published 2024)
